As a reminder, the Kd is the concentration at which binding is half-saturated. As usually defined, the IC50 is the concentration needed to halve the response being measured.

The text below walks through data of the Immune Epitope Database (IEDB).

Assay [1] concerns the target HLA-A*68:02. Description: IEDB peptide-MHC binding, purified MHC/competitive/fluorescence; filed as Kd, often an IC50 or EC50 that approximates it; ≥ and ≤ were set here for values at or beyond the usual limits of such assays. As to conditions: source organism: Mycobacterium tuberculosis C.
Assay [2] deals with HLA-A*26:02. Described as above.
Assay [3] has as its target HLA-A*02:06. The assay is described as above.
For assay [4], the target named is HLA-A*26:01. The assay is described as above.
Assay [5] has as its target HLA-A*11:01. In words: IEDB peptide-MHC binding, purified MHC/direct/fluorescence; filed as Kd, often an IC50 or EC50 that approximates it; ≥ and ≤ were set here for values at or beyond the usual limits of such assays.
For assay [6], the target named is HLA-B*48:01. Described as above.
The target in assay [7] is HLA-B*46:01. The assay is described as above.
The target of assay [8] is HLA-A*69:01. The description is as above.
In assay [9] the target is HLA-B*58:01. The description is as above.
Assay [10] deals with HLA-B*27:05. The description is as above.
Assay [11] has as its target HLA-A*31:01. The assay is described as above.
Assay [12] concerns the target HLA-B*18:01. The description is as above.
Assay [13] has as its target HLA-B*15:01. The description is as above. As to conditions: source organism: Mycobacterium tuberculosis.
Assay [14] deals with HLA-B*40:01. The assay is described as above.
Assay [15] concerns the target HLA-B*07:02. The description is as above.
Assay [16] has as its target HLA-A*01:01. The description is as above.
Assay [17] deals with HLA-B*57:01. The assay is described as above.
Assay [18] addresses HLA-B*15:17. The assay is described as above.
For assay [19], the target named is HLA-A*02:01. Description: IEDB peptide-MHC binding, purified MHC/competitive/radioactivity; ≥ and ≤ were set here for values at or beyond the usual limits of such assays. As to conditions: source organism: Homo sapiens.
For assay [20], the target named is HLA-A*26:03. In words: IEDB peptide-MHC binding, purified MHC/direct/fluorescence; filed as Kd, often an IC50 or EC50 that approximates it; ≥ and ≤ were set here for values at or beyond the usual limits of such assays. As to conditions: source organism: Burkholderia mallei ATCC 23344.
Assay [21] deals with HLA-B*27:05. Description: IEDB peptide-MHC binding, purified MHC/competitive/fluorescence; filed as Kd, often an IC50 or EC50 that approximates it; ≥ and ≤ were set here for values at or beyond the usual limits of such assays. The conditions noted are these: source organism: Escherichia coli 536.
For assay [22], the target named is HLA-B*18:01. Described as above. The conditions noted are these: source organism: Escherichia coli 536.
Assay [23] deals with HLA-B*15:01. The description is as above.
Assay [24] addresses HLA-A*01:01. Described as above. As to conditions: source organism: Escherichia coli 536.
Assay [25] addresses HLA-B*15:17. Described as above. As to conditions: source organism: Escherichia coli 536.
Assay [26] addresses HLA-A*02:01. Described as above. The conditions noted are these: source organism: Escherichia coli 536.
Assay [27] concerns the target HLA-A*68:02. Description: IEDB peptide-MHC binding, purified MHC/direct/fluorescence; filed as Kd, often an IC50 or EC50 that approximates it; ≥ and ≤ were set here for values at or beyond the usual limits of such assays. The conditions noted are these: source organism: Burkholderia mallei.
The target in assay [28] is HLA-A*11:01. In words: IEDB peptide-MHC binding, purified MHC/competitive/fluorescence; filed as Kd, often an IC50 or EC50 that approximates it; ≥ and ≤ were set here for values at or beyond the usual limits of such assays. The conditions noted are these: source organism: Vibrio parahaemolyticus K5030.
Assay [29] concerns the target HLA-B*08:02. In words: IEDB peptide-MHC binding, purified MHC/direct/fluorescence; filed as Kd, often an IC50 or EC50 that approximates it; ≥ and ≤ were set here for values at or beyond the usual limits of such assays. The conditions noted are these: source organism: Vibrio parahaemolyticus RIMD 2210633.
Assay [30] addresses HLA-B*39:01. The assay is described as above. As to conditions: source organism: Vibrio parahaemolyticus RIMD 2210633.
For assay [31], the target named is HLA-A*26:01. The assay is described as above. The conditions noted are these: source organism: Vibrio parahaemolyticus RIMD 2210633.
Assay [32] deals with HLA-A*03:01. Described as above. The conditions noted are these: source organism: Vibrio parahaemolyticus.
Assay [33] has as its target HLA-A*02:01. Described as above. The conditions noted are these: source organism: Vibrio parahaemolyticus.
The mark [34] stands for this setting: source organism: Mycobacterium tuberculosis C.
[35] abbreviates: source organism: Mycobacterium tuberculosis.
The mark [36] stands for this setting: source organism: Escherichia coli 536.
[37] abbreviates: source organism: Burkholderia mallei.
The mark [38] stands for this setting: source organism: Vibrio parahaemolyticus.

Take AVFPRYHPR: the Kd was 1.91 µM in [1]; no less than 20 µM in assay [2] (setting [34]); 2.1 µM in assay [3] (setting [34]); 1.67 µM in [4] (setting [34]); 0.038 µM in assay [5] (setting [35]); no less than 20 µM in [6] (setting [35]). Also, the Kd in [7] (setting [35]) was no less than 20 µM; in [8] (setting [35]) it was no less than 20 µM; in assay [9] (setting [35]), no less than 20 µM; in assay [10] (setting [35]), no less than 20 µM; in assay [11] (setting [35]), 0.0047 µM; in assay [12] (setting [35]), no less than 20 µM. Moreover, the Kd in assay [13], in assay [14] (setting [35]), in [15] (setting [35]), in assay [16] (setting [35]), in [17] (setting [35]) and in [18] (setting [35]) was no less than 20 µM in each case.

For the sequence RQASLSISV, the IC50 in assay [19] was determined as 0.285 µM.

As for DIIGGPCAH, in assay [20], the Kd worked out at 2 µM.

For the sequence KLYPNVDFY, the Kd in [2] (setting [36]) was no less than 20 µM; in assay [21] it was no less than 20 µM; in assay [3] (setting [36]), 1.6 µM; in assay [22] it was no less than 20 µM; in assay [23] (setting [36]) it was 0.107 µM; in [24], 3.47 µM. Moreover, the Kd in assay [4] (setting [36]) was no less than 20 µM; in [25], 0.207 µM; in [26], no less than 20 µM; in assay [5] (setting [37]), 0.225 µM; in assay [6] (setting [37]) it was no less than 20 µM; in assay [27] it was no less than 20 µM. Further, the Kd is no less than 20 µM in assay [7] (setting [37]); no less than 20 µM in assay [8] (setting [37]); 3.63 µM in assay [11] (setting [37]); no less than 20 µM in assay [14] (setting [37]); no less than 20 µM in assay [15] (setting [37]).

For NSSYWRQGY, the Kd in assay [28], in assay [23] (source organism: Vibrio parahaemolyticus K5030), in assay [29], in assay [6] (setting [38]), in assay [7] (setting [38]) and in assay [30] was no less than 20 µM in each case. Besides, the Kd in [8] (setting [38]), in assay [9] (setting [38]), in [10] (setting [38]), in assay [11] (setting [38]), in assay [12] (setting [38]) and in assay [14] (setting [38]) was no less than 20 µM each time. Also, the dissociation constant (Kd) in assay [16] (setting [38]) is 0.093 µM; in assay [31], 0.16 µM; in assay [17] (setting [38]), no less than 20 µM; in assay [18] (setting [38]), 0.222 µM; in [32], no less than 20 µM; in assay [33], no less than 20 µM.

In the case of SCSRAIPQV, in [19], the IC50 was 1.47 µM.
